Results as given in paper PMC4942255, “MutSα maintains the mismatch repair capability by inhibiting PCNA unloading”.

Legend:
Assay in all cases: SPR; no nucleotide or Mg2+ listed in running buffer; n = 2; SPR (BIACORE 3000): 20 mM Hepes-NaOH pH 7.5, 100 mM NaCl, 1 mM DTT, 0.005% Tween-20; 20 μl/min, 3 min association and 3 min dissociation; temperature not stated
Settings in all cases: protein: recombinant; tags: C-terminal FLAG on xMsh6; copies: 1;1; label: 3' biotin on strand 1; blunt, A:C mismatch (A at strand 1 position 22, C in strand 2)
[1] = target: xMutSα ΔN (xMsh2-xMsh6ΔN-FLAG) (Xenopus laevis, UniProt A0A1B4WRB1;A0A1B4WRB2 1-932;=M+324-1340, internal_change)
[2] = target: xMutSα WT (xMsh2-xMsh6-FLAG) (Xenopus laevis, UniProt A0A1B4WRB1;A0A1B4WRB2 1-932;1-1340)
[3] = target: xMutSα PIP (xMsh2-xMsh6PIP-FLAG) (Xenopus laevis, UniProt A0A1B4WRB1;A0A1B4WRB2 1-932;1-1340, Q4A;F10A;F11A)
xMutSα PIP (xMsh2-xMsh6PIP-FLAG), sequence (chain, as listed by the source Q4A;F10A;F11A, chain 1 of 2): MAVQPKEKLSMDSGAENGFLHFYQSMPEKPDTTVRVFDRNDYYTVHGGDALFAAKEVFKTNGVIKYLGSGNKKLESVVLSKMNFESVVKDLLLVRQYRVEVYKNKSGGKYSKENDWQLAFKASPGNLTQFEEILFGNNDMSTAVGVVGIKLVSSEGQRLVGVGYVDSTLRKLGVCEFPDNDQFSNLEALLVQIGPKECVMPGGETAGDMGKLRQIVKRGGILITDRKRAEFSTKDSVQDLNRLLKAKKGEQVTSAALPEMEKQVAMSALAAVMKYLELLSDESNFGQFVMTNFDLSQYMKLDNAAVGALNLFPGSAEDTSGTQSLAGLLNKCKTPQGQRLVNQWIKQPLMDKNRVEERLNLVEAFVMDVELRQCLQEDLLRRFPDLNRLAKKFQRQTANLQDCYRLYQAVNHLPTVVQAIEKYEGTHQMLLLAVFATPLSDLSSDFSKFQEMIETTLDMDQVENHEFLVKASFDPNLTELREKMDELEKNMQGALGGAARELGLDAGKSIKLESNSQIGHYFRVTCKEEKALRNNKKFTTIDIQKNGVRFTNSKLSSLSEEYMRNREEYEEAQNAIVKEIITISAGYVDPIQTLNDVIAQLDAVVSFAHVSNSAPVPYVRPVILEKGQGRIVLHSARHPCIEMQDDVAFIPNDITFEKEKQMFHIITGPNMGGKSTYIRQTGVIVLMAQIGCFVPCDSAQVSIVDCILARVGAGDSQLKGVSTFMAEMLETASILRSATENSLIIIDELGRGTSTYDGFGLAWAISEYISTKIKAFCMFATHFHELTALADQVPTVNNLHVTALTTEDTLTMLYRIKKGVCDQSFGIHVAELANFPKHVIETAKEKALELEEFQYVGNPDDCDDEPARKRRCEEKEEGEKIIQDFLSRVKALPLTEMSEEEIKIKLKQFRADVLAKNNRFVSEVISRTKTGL
xMutSα PIP (xMsh2-xMsh6PIP-FLAG), sequence (chain, as listed by the source Q4A;F10A;F11A, chain 2 of 2): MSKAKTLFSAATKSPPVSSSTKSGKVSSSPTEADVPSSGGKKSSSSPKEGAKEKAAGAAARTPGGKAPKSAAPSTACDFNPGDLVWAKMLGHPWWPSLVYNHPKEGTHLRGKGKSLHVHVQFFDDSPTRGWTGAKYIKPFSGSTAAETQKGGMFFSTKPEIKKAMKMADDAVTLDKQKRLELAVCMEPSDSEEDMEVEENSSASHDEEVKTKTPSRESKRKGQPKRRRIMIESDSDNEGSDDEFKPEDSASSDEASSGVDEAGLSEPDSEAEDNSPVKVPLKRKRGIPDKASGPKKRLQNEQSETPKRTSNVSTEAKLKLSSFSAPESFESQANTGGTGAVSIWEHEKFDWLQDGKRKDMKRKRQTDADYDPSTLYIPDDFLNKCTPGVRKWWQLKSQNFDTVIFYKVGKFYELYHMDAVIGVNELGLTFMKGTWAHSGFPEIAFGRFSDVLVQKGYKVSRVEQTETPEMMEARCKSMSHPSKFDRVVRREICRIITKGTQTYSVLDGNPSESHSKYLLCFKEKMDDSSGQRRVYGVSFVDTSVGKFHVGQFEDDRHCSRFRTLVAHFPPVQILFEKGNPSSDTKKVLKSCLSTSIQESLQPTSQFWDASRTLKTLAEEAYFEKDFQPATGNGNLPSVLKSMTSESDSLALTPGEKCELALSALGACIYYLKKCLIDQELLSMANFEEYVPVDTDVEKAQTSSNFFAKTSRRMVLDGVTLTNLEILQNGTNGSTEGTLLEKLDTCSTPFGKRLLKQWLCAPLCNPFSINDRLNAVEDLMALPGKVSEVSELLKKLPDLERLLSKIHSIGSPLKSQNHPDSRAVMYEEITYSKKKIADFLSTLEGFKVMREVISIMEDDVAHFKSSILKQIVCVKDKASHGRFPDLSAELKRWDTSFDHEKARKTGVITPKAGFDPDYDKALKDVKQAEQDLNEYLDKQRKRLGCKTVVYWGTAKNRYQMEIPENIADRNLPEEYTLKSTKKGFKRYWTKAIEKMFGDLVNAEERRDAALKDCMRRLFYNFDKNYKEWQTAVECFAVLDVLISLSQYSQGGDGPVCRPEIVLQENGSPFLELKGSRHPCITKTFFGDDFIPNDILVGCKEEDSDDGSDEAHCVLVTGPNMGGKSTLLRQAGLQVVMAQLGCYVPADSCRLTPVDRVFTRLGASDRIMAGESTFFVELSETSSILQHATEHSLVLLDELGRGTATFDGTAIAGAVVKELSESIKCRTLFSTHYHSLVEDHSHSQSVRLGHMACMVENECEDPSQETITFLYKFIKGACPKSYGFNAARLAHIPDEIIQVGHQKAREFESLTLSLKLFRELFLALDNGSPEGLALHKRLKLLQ

xMutSα WT (xMsh2-xMsh6-FLAG), sequence (chain, as listed by the source, chain 1 of 2): as the sequence (chain, as listed by the source Q4A;F10A;F11A, chain 1 of 2) above
xMutSα WT (xMsh2-xMsh6-FLAG), sequence (chain, as listed by the source, chain 2 of 2): as the sequence (chain, as listed by the source Q4A;F10A;F11A, chain 2 of 2) above, with A4Q, A10F, A11F counted along it

B1: 42 bp A:C mismatch oligo DNA (dsDNA)
DNA 1: GGGTGACCGTACTGCATCTCGAGATCCATGTTACTGCGTCAG
DNA 2: CTGACGCAGTAACATGGATCCCGAGATGCAGTACGGTCACCC
Kd [1]: 3.6 nM | Kd [2]: 2.2 nM | Kd [3]: 4.4 nM
